The results in this text go back to patent publication US20120058906A1.

In test [1] the target is rHuman ErbB2/Fc Chimera, CF (R&D Systems Cat#1129-ER) (human) (UniProt P04626). Briefly: MSD ECL multi-spot assay, antigen spotted on plate, Fab […]; blank spot 2877.
Test [2] has as its target rHuman HGF R/c-MET/Fc Chimera, CF (R&D Systems Cat#358-MT/CF) (human) (UniProt P08581). The description is as above.
The target in test [3] is rHuman IGF-1 sR (IGF-1 sR), CF (R&D Systems Cat#391-GR) (human) (UniProt P08069). Described as above.
Test [4] deals with rHuman CD44/Fc Chimera, CF (R&D Systems Cat#3660-CD) (human) (UniProt P16070). Briefly: MSD ECL multi-spot, Fab 0.43 uM, blank 879.
Test [5] deals with rHuman EGF R/Fc Chimera, CF (R&D Systems Cat#344-ER) (human) (UniProt P00533). Description: MSD ECL multi-spot, Fab 0.43 uM, blank 879.
Test [6] concerns the target rHuman HGF R/c-MET/Fc Chimera, CF (R&D Systems Cat#358-MT/CF) (human) (UniProt P08581). Description: MSD ECL multi-spot, Fab 0.43 uM, blank 879.
The target in test [7] is Recombinant Human DLL4 (R&D Systems Cat#1506-D4/CF) (human) (UniProt Q9NR61). Briefly: ECL (MSD Multi-Spot) binding, antigen spotted on plate, Fab at […]; blank spot 250.
Test [8] shares this target. Briefly: ECL (MSD Multi-Spot) binding, antigen spotted on plate, Fab at […]; blank spot 294.
Test [9] deals with rHuman P-Cadherin/Fc Chimera, CF (R&D Systems Cat#861-PC) (human) (UniProt P22223). The description is as above.
Test [10] addresses Recombinant Human DLL4 (R&D Systems Cat#1506-D4/CF) (human) (UniProt Q9NR61). Briefly: ECL (MSD Multi-Spot) binding, antigen spotted on plate, Fab at 125 nM; blank spot 403.
Test [11] has the same target. Description: ECL (MSD Multi-Spot) binding, antigen spotted on plate, Fab at 250 nM; blank spot 590.
The target in test [12] is rHuman P-Cadherin/Fc Chimera, CF (R&D Systems Cat#861-PC) (human) (UniProt P22223). Described as above.
Test [13] concerns the target Recombinant Human DLL4 (R&D Systems Cat#1506-D4/CF) (human) (UniProt Q9NR61). Description: ECL (MSD Multi-Spot) binding, antigen spotted on plate, Fab at 500 nM; blank spot 680.
Test [14] has as its target rHuman P-Cadherin/Fc Chimera, CF (R&D Systems Cat#861-PC) (human) (UniProt P22223). The test is described as above.
The target in test [15] is Recombinant Human DLL4 (R&D Systems Cat#1506-D4/CF) (human) (UniProt Q9NR61). Description: ECL (MSD Multi-Spot) binding, antigen spotted on plate, Fab at 7.8 nM; blank spot 316.
Test [16] concerns the target rHuman P-Cadherin/Fc Chimera, CF (R&D Systems Cat#861-PC) (human) (UniProt P22223). The description is as above.
Test [17] addresses Recombinant Human DLL4 (R&D Systems Cat#1506-D4/CF) (human) (UniProt Q9NR61). Description: ECL (MSD Multi-Spot) binding, antigen spotted on plate, Fab at 62.5 nM; blank spot 268.
In test [18] the target is rHuman P-Cadherin/Fc Chimera, CF (R&D Systems Cat#861-PC) (human) (UniProt P22223). The description is as above.
The target in test [19] is Recombinant Human DLL4 (R&D Systems Cat#1506-D4/CF) (human) (UniProt Q9NR61). Description: ECL (MSD Multi-Spot) binding, antigen spotted on plate, Fab at 1000 nM; blank spot 1133.
Test [20] addresses rHuman P-Cadherin/Fc Chimera, CF (R&D Systems Cat#861-PC) (human) (UniProt P22223). Described as above.
For test [21], the target named is rHuman EGF R/Fc Chimera, CF (R&D Systems Cat#344-ER) (human) (UniProt P00533). Briefly: MSD ECL multi-spot assay, antigen spotted on plate, Fab 0.51 uM; blank spot 1393.
For test [22], the target named is rHuman Erythropoietin R/Fc Chimera, CF (R&D Systems Cat#963-ER) (human) (UniProt P19235). The description is as above.
The target of test [23] is rHuman Notch-1/Fc Chimera, CF (R&D Systems Cat#3647-TK) (human) (UniProt P46531). The description is as above.
For test [24], the target named is rHuman P-Cadherin/Fc Chimera, CF (R&D Systems Cat#861-PC) (human) (UniProt P22223). Described as above.

rHuman Erythropoietin R/Fc Chimera, CF (R&D Systems Cat#963-ER) (human), sequence (P19235 25-250, change not shown): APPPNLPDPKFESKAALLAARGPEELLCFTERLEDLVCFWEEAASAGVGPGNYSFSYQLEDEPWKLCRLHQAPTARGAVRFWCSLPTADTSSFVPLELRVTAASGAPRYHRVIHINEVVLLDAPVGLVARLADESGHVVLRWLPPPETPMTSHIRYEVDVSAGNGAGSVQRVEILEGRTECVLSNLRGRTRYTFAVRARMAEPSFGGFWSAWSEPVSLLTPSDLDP

Consider “Fab VH1-46_IGHD6-13*01_IGHJ4*01 & A27_IGKJ1*01”, for which the ECL signal in test [1] stood at 6940; in [2] it was 6310; in test [3], 5470.

In the case of “Fab VH1-46_IGHD6-13*01_IGHJ4*01 & B3_IGKJ1*01”, the ECL signal came out at 1500 in test [4]; 1230 in [5]; 1140 in test [6]; 528 in test [7]; 525 in [8]; 971 in test [9]. The ECL signal in test [10] worked out at 912; in test [11] it was 1560; in test [12] it was 2780; in test [13], 2320; in test [14], 3450; in test [15], 407. In addition, the ECL signal in test [16] turned out to be 695; in test [17], 715; in test [18], 1170; in test [19] it was 2780; in test [20], 4500.

For the substance “Fab VH4-34_IGHD7-27*01_IGHJ4*01 & L5_IGKJ1*01”, the ECL signal in test [21] turned out to be 1810; in [22], 2560; in [23] it was 2880; in [24] it was 3180.
